# Target: 30/30 nucleosomes labeled with Cy3 on H4 A15C, P62799
# Experiment: other fluorescence titration
binder,measurement,value
"SNF2h ΔHSS (domain or fragment, modifications not checked) MSSAAEPPPPPPPESAPSKPAASIASGGSNSSNKGGPEGVAAQAVASAASAGPADAEMEEIFDDASPGKQKEIQEPDPTYEEKMQTDRANRFEYLLKQTELFAHFIQPAAQKTPTSPLKMKPGRPRIKKDEKQNLLSVGDYRHRRTEQEEDEELLTESSKATNVCTRFEDSPSYVKWGKLRDYQVRGLNWLISLYENGINGILADEMGLGKTLQTISLLGYMKHYRNIPGPHMVLVPKSTLHNWMSEFKRWVPTLRSVCLIGDKEQRAAFVRDVLLPGEWDVCVTSYEMLIKEKSVFKKFNWRYLVIDEAHRIKNEKSKLSEIVREFKTTNRLLLTGTPLQNNLHELWSLLNFLLPDVFNSADDFDSWFDTNNCLGDQKLVERLHMVLRPFLLRRIKADVEKSLPPKKEVKIYVGLSKMQREWYTRILMKDIDILNSAGKMDKMRLLNILMQLRKCCNHPYLFDGAEPGPPYTTDMHLVTNSGKMVVLDKLLPKLKEQGSRVLIFSQMTRVLDILEDYCMWRNYEYCRLDGQTPHDERQDSINAYNEPNSTKFVFMLSTRAGGLGINLATADVVILYDSDWNPQVDLQAMDRAHRIGQTKTVRVFRFITDNTVEERIVERAEMKLRLDSIVIQQGRLVDQNLNKIGKDEMLQMIRHGATHVFASKESEITDEDIDGILERGAKKTAEMNEKLSKMGESSLRNFTMDTESSVYNFEGEDYREKQKIAFTE",fold decrease in affinity against wild type SNF2h,56 fold
same,fold decrease in binding against wild type SNF2h,22 fold

# — paper PMC4355161
